Results reported in paper PMC3597468 (Journal of controlled release : official journal of the …, 2012).

Molecular target: the molecule itself
Test: cross-linking

B1: Catalase, from bovine liver (enzyme, UniProt P00432 1-527, looked up)
chain: MADNRDPASDQMKHWKEQRAAQKPDVLTTGGGNPVGDKLNSLTVGPRGPLLVQDVVFTDEMAHFDRERIPERVVHAKGAGAFGYFEVTHDITRYSKAKVFEHIGKRTPIAVRFSTVAGESGSADTVRDPRGFAVKFYTEDGNWDLVGNNTPIFFIRDALLFPSFIHSQKRNPQTHLKDPDMVWDFWSLRPESLHQVSFLFSDRGIPDGHRHMNGYGSHTFKLVNANGEAVYCKFHYKTDQGIKNLSVEDAARLAHEDPDYGLRDLFNAIATGNYPSWTLYIQVMTFSEAEIFPFNPFDLTKVWPHGDYPLIPVGKLVLNRNPVNYFAEVEQLAFDPSNMPPGIEPSPDKMLQGRLFAYPDTHRHRLGPNYLQIPVNCPYRARVANYQRDGPMCMMDNQGGAPNYYPNSFSAPEHQPSALEHRTHFSGDVQRFNSANDDNVTQVRTFYLKVLNEEQRKRLCENIAGHLKDAQLFIQKKAVKNFSDVHPEYGSRIQALLDKYNEEKPKNAVHTYVQHGSHLSAREKANL
binding result: binds
